Measured values from IntAct's records for PubMed 19740107.

B1: Amphiregulin (Homo sapiens), P15514 (parent)
chain: MRAPLLPPAPVVLSLLILGSGHYAAGLDLNDTYSGKREPFSGDHSADGFEVTSRSEMSSGSEISPVSEMPSSSEPSSGADYDYSEEYDNEPQIPGYIVDDSVRVEQVVKPPQNKTESENTSDKPKRKKKGGKNGKNRRNRKKKNPCNAEFQNFCIHGECKYIEHLEAVTCKCQQEYFGERCGEKSMKTHSMIDSSLSKIALAAIAAFMSAVILTAVAVITVQLRRQYVRKYEGEAEERKKLRQENGNVHAIA

Variants of: B1
Details: with S100A4, P26447
Chain of S100A4, P26447 (P26447 whole entry, looked up): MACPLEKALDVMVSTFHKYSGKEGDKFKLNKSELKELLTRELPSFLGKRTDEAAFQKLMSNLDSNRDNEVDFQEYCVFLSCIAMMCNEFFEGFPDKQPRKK

Variant	effect of a mutation on the interaction
C170A	decreasing interaction
K171A	decreasing interaction
C172L	decreasing interaction

Variants of: B1
Details: with S100A4, P26447
Remark: another data set of the same source

Variant	effect of a mutation on the interaction
F153L	decreasing interaction
C154A	decreasing interaction
